# From patent US20230295297A1 (Alector, published 2023)
# Changes are numbered by the printed parent chain.
# T1: D152A
# T1 construct: also called hTREM2-Dap12 chimera with D152A; not shown: Transmembrane/cytoplasmic stretch and the Dap12 portion of the chimera
# T1 chain: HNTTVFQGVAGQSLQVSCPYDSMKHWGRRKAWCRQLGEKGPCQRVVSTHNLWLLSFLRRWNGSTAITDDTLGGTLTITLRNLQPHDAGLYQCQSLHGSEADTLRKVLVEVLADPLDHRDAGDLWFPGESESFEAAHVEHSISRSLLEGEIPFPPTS
# T2: H154A
# T2 construct: also called hTREM2-Dap12 chimera with H154A; not shown: Transmembrane/cytoplasmic stretch and the Dap12 portion of the chimera
# T2 chain: T1 chain with A134D, H136A
# T3: R77A
# T3 construct: also called hTREM2-Dap12 chimera with R77A; not shown: Transmembrane/cytoplasmic stretch and the Dap12 portion of the chimera
# T3 chain: T1 chain with R59A, A134D
# T4: E151A
# T4 construct: also called hTREM2-Dap12 chimera with E151A; not shown: Transmembrane/cytoplasmic stretch and the Dap12 portion of the chimera
# T4 chain: T1 chain with E133A, A134D
# T5: H114A
# T5 construct: also called hTREM2-Dap12 chimera with H114A; not shown: Transmembrane/cytoplasmic stretch and the Dap12 portion of the chimera
# T5 chain: T1 chain with H96A, A134D
# T6: K42A
# T6 construct: also called hTREM2-Dap12 chimera with K42A; not shown: Transmembrane/cytoplasmic stretch and the Dap12 portion of the chimera
# T6 chain: T1 chain with K24A, A134D
# T7: G45A
# T7 construct: also called hTREM2-Dap12 chimera with G45A; not shown: Transmembrane/cytoplasmic stretch and the Dap12 portion of the chimera
# T7 chain: T1 chain with G27A, A134D
# T8: E156A
# T8 construct: also called hTREM2-Dap12 chimera with E156A; not shown: Transmembrane/cytoplasmic stretch and the Dap12 portion of the chimera
# T8 chain: T1 chain with A134D, E138A
# T9: mouse TREM2 on cells (mouse, UniProt Q99NH8 19-227)
# T9 construct: recombinant on BWZ cells (with DAP12) and native on mouse macrophages; also called BWZmT2; BWZ T2
# T9 sequence: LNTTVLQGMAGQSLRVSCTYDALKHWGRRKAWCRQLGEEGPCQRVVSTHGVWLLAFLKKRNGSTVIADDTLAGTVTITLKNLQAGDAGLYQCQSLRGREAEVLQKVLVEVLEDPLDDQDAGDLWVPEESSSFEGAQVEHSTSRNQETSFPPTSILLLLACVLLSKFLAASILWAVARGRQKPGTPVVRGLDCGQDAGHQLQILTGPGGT
# T10: human TREM2 on primary cells (human, UniProt Q9NZC2 19-230)
# T10 construct: also called TREM2 on hDC; hMAC
# T10 sequence: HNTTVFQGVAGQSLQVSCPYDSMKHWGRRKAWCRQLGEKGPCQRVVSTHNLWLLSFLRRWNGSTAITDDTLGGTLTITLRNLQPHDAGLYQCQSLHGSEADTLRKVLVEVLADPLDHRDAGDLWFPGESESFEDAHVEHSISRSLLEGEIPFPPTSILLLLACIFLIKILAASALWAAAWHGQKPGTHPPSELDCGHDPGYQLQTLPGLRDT
# T11: recombinant human TREM2-DAP12 fusion protein expressed on cells (human)
# T11 construct: also called HEKhT2; 293 cells expressing human TREM2; not shown: None of these limits is stated
# T11 chain: T1 chain with A134D
# B1: 9F5 (antibody, IgG1, V domains shown)
# VH: QVQLQQSGPELVKPGASLKISCKASGYAFSSSWMNWVKQRPGKGLEWIGRIYPGDGDTNYNGEFRVRATLTADTSSTTAYMQLSSLTSEDSAVYFCARLLRNQPGESYAMDYWGQGASVTVSS
# VL: DVVMTQTPLSLPVSLGDQASISCRSSQSLVHSNGYTYLHWYLQKPGQSPKLLIYKVSNRFSGVPDRFSGSGSGTDFTLKISRVEADDLGVYFCSQSTRVPYTFGGGTKLEIK
# notes: mIgG1; VH FR 169/184/202/216, HVR 60/78/97; also called mAb T2-9F5.1; 9F5 MAb
# How the values were obtained:
# D152A [1] = biological target: T1, D152A; assay: shotgun alanine scanning: immunofluorescence flow cytometry on HEK-293T cells expressing the mutant chimera; mean of duplicates, range in brackets
# H154A [2] = biological target: T2, H154A; assay: as above
# R77A = biological target: T3, R77A; assay: as above
# E151A [3] = biological target: T4, E151A; assay: as above
# H114A = biological target: T5, H114A; assay: as above
# K42A = biological target: T6, K42A; assay: as above
# G45A = biological target: T7, G45A; assay: as above
# E156A = biological target: T8, E156A; assay: as above
# D152A [4] = biological target: T1, D152A; assay: shotgun alanine scanning: immunofluorescence flow cytometry on HEK-293T cells expressing the mutant chimera
# H154A [5] = biological target: T2, H154A; assay: as above
# E151A [6] = biological target: T4, E151A; assay: as above
# mouse TREM2 on cells = biological target: T9, mouse TREM2 on cells; assay: FACS on thioglycollate-induced macrophages of wild-type mice (mouse TREM2 only), gated CD11b+ F4/80+
# [7] = biological target: T10, human TREM2 on primary cells; assay: FACS, primary hMAC
# [8] = biological target: T11, recombinant human TREM2-DAP12 fusion …; assay: FACS, HEKhT2 cells
# [9] = biological target: T11, recombinant human TREM2-DAP12 fusion …; assay: KD cell binding
# [10] = biological target: T10, human TREM2 on primary cells; assay: FACS, primary hDC
binder,measurement,setting,value
B1,Binding Reactivity (% WT),D152A [1],2.7 % WT
same,Binding Reactivity (% WT),H154A [2],3 % WT
same,Binding Reactivity (% WT),R77A,124 % WT
same,Binding Reactivity (% WT),E151A [3],4.8 % WT
same,Binding Reactivity (% WT),H114A,114 % WT
same,Binding Reactivity (% WT),K42A,131 % WT
same,Binding Reactivity (% WT),G45A,145 % WT
same,Binding Reactivity (% WT),E156A,17.7 % WT
same,binding result,D152A [4],no binding
same,binding result,H154A [5],no binding
same,binding result,E151A [6],no binding
same,binding result,mouse TREM2 on cells,no binding
same,% Positive hMAC,[7],26%
same,MFI HEKhT2,[8],2910 MFI
same,Kd,[9],0.96 nM
same,% Positive hDC,[10],73%
